Source: the supplement of paper PMC9876800

Test system: peptide library, one residue held at a place counted from the S/T acceptor
Experiment: relative phosphorylation of the sub-library (ratio to the mean residue at this position); higher = residue favoured
Details: human
Procedure, shortened: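 Purified recombinant kinases were reacted in 384-well plates with biotinylated degenerate peptide sub-libraries, each having one residue fixed at one position around a central Ser/Thr. The reaction mix contained 50 μM peptide plus 50 μM ATP spiked with γ-32P-ATP and ran for 90 min under kinase-specific conditions. Relative sub-library phosphorylation, taken from densitometry of phosphorimaged streptavidin membrane spots, is a ratio to the mean residue at that position.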

Chain of IKBKB, construct: Full length (O14920 whole entry, looked up): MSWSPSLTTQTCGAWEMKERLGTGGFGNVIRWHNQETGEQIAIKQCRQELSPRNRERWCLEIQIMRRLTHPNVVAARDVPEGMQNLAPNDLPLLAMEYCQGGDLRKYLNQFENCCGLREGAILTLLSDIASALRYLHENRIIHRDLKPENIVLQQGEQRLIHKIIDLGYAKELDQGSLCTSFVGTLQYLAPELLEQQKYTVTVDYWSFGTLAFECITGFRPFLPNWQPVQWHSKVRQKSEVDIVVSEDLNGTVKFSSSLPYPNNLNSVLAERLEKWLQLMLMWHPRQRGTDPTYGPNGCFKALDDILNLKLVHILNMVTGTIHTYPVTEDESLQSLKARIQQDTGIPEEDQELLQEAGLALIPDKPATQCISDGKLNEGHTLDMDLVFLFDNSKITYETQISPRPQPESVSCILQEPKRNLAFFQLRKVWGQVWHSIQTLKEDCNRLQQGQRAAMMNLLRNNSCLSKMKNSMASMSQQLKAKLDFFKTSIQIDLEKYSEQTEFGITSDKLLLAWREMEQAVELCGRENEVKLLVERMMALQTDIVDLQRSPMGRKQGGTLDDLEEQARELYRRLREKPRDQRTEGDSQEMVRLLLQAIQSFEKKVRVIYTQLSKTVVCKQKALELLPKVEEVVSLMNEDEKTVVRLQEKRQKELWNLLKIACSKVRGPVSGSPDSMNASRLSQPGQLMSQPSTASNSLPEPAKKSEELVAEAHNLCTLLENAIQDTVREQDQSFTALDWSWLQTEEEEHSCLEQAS
Chain of SGK1, construct: aa61-end (O00141 61-431, looked up): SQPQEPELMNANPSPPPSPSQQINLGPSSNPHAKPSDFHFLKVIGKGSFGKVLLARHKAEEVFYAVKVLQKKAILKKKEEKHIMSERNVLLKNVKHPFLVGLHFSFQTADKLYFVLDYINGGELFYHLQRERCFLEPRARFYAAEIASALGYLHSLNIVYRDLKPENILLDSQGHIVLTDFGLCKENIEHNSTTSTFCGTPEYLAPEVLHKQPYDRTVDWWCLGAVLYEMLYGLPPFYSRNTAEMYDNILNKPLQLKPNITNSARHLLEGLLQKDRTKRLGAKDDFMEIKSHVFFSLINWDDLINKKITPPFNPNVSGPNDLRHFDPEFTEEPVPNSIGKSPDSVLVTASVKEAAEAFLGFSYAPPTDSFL

PIM3, construct: Full length (from UniProt Q86V86)
relative phosphorylation
Details	at +1	at +2	at +3	at +4	at -1	at -2	at -3	at -4	at -5
A fixed	1.07	0.944	0.735	0.954	0.952	0.672	0.676	0.984	1.16
D fixed	0.918	0.986	1.47	1.17	0.769	0.637	0.718	1.07	0.989
E fixed	1.44	0.858	1.26	1.11	0.996	0.621	0.674	1.14	0.697
F fixed	0.469	0.684	0.673	0.752	0.608	0.761	0.393	0.62	0.693
G fixed	3.27	0.888	1.21	1.37	0.819	0.746	0.848	1.45	1.25
H fixed	0.811	1.84	1.2	1.03	1.02	2.91	0.985	1.1	1.32
I fixed	0.715	0.499	0.602	0.728	0.454	0.427	0.249	0.628	0.533
K fixed	0.959	1.23	1.24	1.09	1.78	1.14	1.64	1.24	1.72
L fixed	0.571	0.624	0.587	0.823	0.693	0.473	0.309	0.567	0.52
M fixed	0.84	0.648	0.733	0.827	0.713	0.566	0.403	0.992	0.539
N fixed	1.21	1.57	1.24	1.16	1.46	1.23	0.74	0.975	0.869
P fixed	0.416	1.11	0.828	1.47	2.12	1.1	1.33	1.42	1
Q fixed	1.33	1.16	1.19	1.14	1.46	1.07	0.856	1.08	0.926
R fixed	0.955	1.44	1.53	0.79	1	2.1	5.83	1.57	2.42
V fixed	0.828	0.7	0.69	0.859	0.697	0.456	0.372	0.657	0.714
W fixed	0.553	0.981	0.931	0.934	0.529	0.905	0.575	0.775	0.961
Y fixed	0.634	0.824	0.87	0.795	0.926	1.19	0.409	0.744	0.688
pThr fixed	1.27	1.04	1.04	1.68	0.585	0.694	0.78	0.779	0.67
pTyr fixed	0.783	0.886	1.11	1.02	1.21	0.975	0.904	1.03	1.03

SGK1, construct: aa61-end (from UniProt O00141)
relative phosphorylation
Details	at +1	at +2	at +3	at +4	at -1	at -2	at -3	at -4	at -5
A fixed	0.603	1.03	0.911	1.01	0.815	1.22	0.388	1.06	0.955
D fixed	0.457	0.581	1.1	0.881	0.63	0.242	0.147	0.679	0.427
E fixed	0.461	0.537	1.14	1.03	0.483	0.227	0.157	0.749	0.453
F fixed	2.32	0.768	0.975	0.795	0.768	0.493	0.16	0.613	0.62
G fixed	0.766	1.06	1.33	1.17	1.73	0.758	0.268	1.04	0.948
H fixed	0.889	1.6	1.35	1.33	1.25	0.946	0.757	1.01	0.99
I fixed	1.45	1.18	0.784	0.863	0.395	0.28	0.145	0.641	0.7
K fixed	0.861	0.906	1.17	1.05	1.38	3.57	1.4	1.98	2.38
L fixed	1.22	1.27	0.975	0.702	0.751	0.401	0.149	0.699	0.617
M fixed	1.49	0.948	0.833	0.936	1.05	0.335	0.157	0.838	0.736
N fixed	0.881	1.13	0.976	1.22	1.52	0.55	0.245	0.825	0.852
P fixed	0.859	0.94	0.921	1.31	1.25	0.388	0.296	1.17	0.882
Q fixed	0.974	0.674	0.939	0.921	0.893	0.544	0.443	0.902	0.744
R fixed	1.01	1.58	1.01	1.03	1.64	5.91	11.7	2.89	3.67
V fixed	1.16	1.01	0.753	0.737	0.471	0.352	0.152	0.693	0.675
W fixed	0.7	0.737	0.892	1.1	0.692	0.332	0.225	0.59	0.626
Y fixed	0.906	1.05	0.934	0.912	1.28	0.452	0.219	0.625	0.721
pThr fixed	0.747	0.655	0.926	1.36	0.306	0.367	0.24	0.711	0.556
pTyr fixed	0.806	1.04	1.43	1.54	0.752	0.319	0.232	0.574	0.722

SRPK1, construct: Full length (from UniProt Q96SB4)
relative phosphorylation
Details	at +1	at +2	at +3	at +4	at -1	at -2	at -3	at -4	at -5
A fixed	0.85	1.23	0.682	1.04	1.12	1.65	0.811	1.21	1.51
D fixed	0.273	1.46	0.499	1.13	0.486	1.63	0.506	0.682	0.77
E fixed	0.377	1.33	0.412	0.886	0.589	0.981	0.363	0.734	0.686
F fixed	0.387	0.626	0.424	0.741	0.476	0.637	0.297	0.713	1
G fixed	0.942	1.03	0.911	1.12	0.959	1.34	0.634	1.14	1.28
H fixed	0.563	1.61	0.697	0.988	1.2	1.72	0.454	0.956	0.954
I fixed	0.607	0.588	0.46	0.823	0.554	0.51	0.372	0.736	0.796
K fixed	1.55	1.14	1.43	1.47	2.19	1.34	1.02	1.61	1.58
L fixed	0.698	0.623	0.46	0.781	0.741	0.429	0.326	0.725	0.788
M fixed	0.62	0.715	0.499	0.773	0.723	0.5	0.302	0.823	0.892
N fixed	0.613	1.15	0.796	1.05	1.02	1.19	0.433	0.962	0.867
P fixed	4.75	1.34	1.69	1.36	1.9	1.03	0.6	1.38	1.01
Q fixed	0.932	0.981	0.699	1.1	1.16	0.692	0.596	0.87	0.675
R fixed	2.33	1.27	5.99	1.4	2.17	1.6	9.31	2.29	1.45
V fixed	0.722	0.715	0.458	0.705	0.698	0.54	0.343	0.66	0.879
W fixed	0.417	0.582	0.452	0.886	0.42	0.616	0.312	0.735	1.04
Y fixed	0.378	0.607	0.439	0.745	0.572	0.594	0.322	0.771	0.829
pThr fixed	0.489	1.26	0.585	1.19	0.548	0.681	0.51	0.772	0.765
pTyr fixed	0.462	0.95	0.653	1.06	0.753	1.39	0.694	1.43	0.947

IKBKB, construct: Full length (from UniProt O14920)
relative phosphorylation
Details	at +1	at +2	at +3	at +4	at -1	at -2	at -3	at -4	at -5
A fixed	0.6	0.901	1.06	1.08	0.811	0.919	0.94	1.15	1.22
D fixed	0.469	1.2	1.65	1.46	1.1	0.397	0.912	1.57	1.71
E fixed	0.544	1.27	1.65	1.43	0.941	0.805	1.05	1.8	1.52
F fixed	1.55	0.676	1.01	0.834	0.909	2.22	1.07	0.751	0.995
G fixed	1.12	1.2	1.46	1.09	0.478	0.442	1	1.24	1.23
H fixed	0.745	1.39	1.11	0.922	1.21	1.47	1.19	0.94	1.01
I fixed	2.06	0.812	0.71	0.769	0.89	1.11	0.762	0.749	0.741
K fixed	0.268	0.805	0.68	0.827	1.03	0.408	0.878	0.741	0.714
L fixed	2.05	0.783	0.816	0.81	1.22	1.48	0.699	0.754	0.687
M fixed	1.66	0.701	0.8	0.995	1.09	1.16	0.764	0.907	0.738
N fixed	0.613	1.5	1.1	1.08	1.15	1.06	1.01	0.988	1.03
P fixed	0.228	1.13	0.931	1.43	1.06	0.371	1.31	1.17	0.973
Q fixed	0.576	1.25	0.91	1.06	0.989	0.73	0.922	0.878	0.908
R fixed	0.362	1.08	0.608	0.672	1.07	0.583	1.76	0.975	0.842
V fixed	1.38	1.1	0.688	0.738	0.998	0.762	0.843	0.804	0.89
W fixed	1.46	0.525	0.904	1.02	0.895	0.85	0.885	0.733	0.926
Y fixed	1.33	0.665	0.917	0.773	1.16	2.23	1.01	0.851	0.864
pThr fixed	0.817	1.38	0.898	1.53	1.01	1.08	1.55	1.97	1.93
pTyr fixed	1.03	1.32	1.23	1.06	1.77	4.33	2.11	1.48	1.51
